Patent US20250042994A1
One block for each substance: values may come before it.

Columns and labels:
[1] = target: human CD19 on CHO-K1-human CD19 cells (human) (UniProt P15391); experiment: FACS on CHO-K1-human CD19 cells
[2] = target: human CD19 on Raji cells (human) (UniProt P15391); experiment: FACS on Raji cells
[3] = target: Human CD19-his protein (human) (UniProt P15391); experiment: ELISA, coated human CD19-His
[4] = target: Human CD19-his protein (human) (UniProt P15391); experiment: ELISA, antibody at 0.01 nM
[5] = target: Human CD19-his protein (human) (UniProt P15391); experiment: ELISA, antibody at 0.10 nM
[6] = target: cynomolgus monkey CD19 on peripheral blood B cells (cynomolgus monkey (Macaca fascicularis)); experiment: FACS, cynomolgus PBMC, CD20+ B cells
[7] = target: Human CD19-his protein (human) (UniProt P15391); experiment: ELISA, antibody at 100 nM
[8] = target: Human CD19-his protein (human) (UniProt P15391); experiment: ELISA, antibody at 1.00 nM
[9] = target: Human CD19-his protein (human) (UniProt P15391); experiment: ELISA, antibody at 10 nM
[10] = target: monkey CD19 on HEK293T-monkey CD19 cells (monkey); experiment: FACS on HEK293T-monkey CD19 cells
[11] = target: Human CD19-his protein (human) (UniProt P15391); experiment: ELISA, antibody at 0.0001 nM
[12] = target: Human CD19-his protein (human) (UniProt P15391); experiment: ELISA, antibody at 0.001 nM
[13] = target: monkey CD19 on cells (monkey); experiment: FACS on HEK293T-monkey CD19
[14] = target: human CD19 on the surface of cells (human) (UniProt P15391); experiment: FACS on CHO-K1-human CD19-2C8
[15] = target: human CD19 on the surface of cells (human) (UniProt P15391); experiment: FACS on Raji cells
[16] = target: human CD19 on the surface of cells (human) (UniProt P15391); experiment: FACS on CHO-K1-human CD19-2G4
[17] = target: human CD19 on the surface of cells (human) (UniProt P15391); experiment: FACS on CHO-K1-human CD19-1C9
[18] = target: human CD19 on the surface of cells (human) (UniProt P15391); experiment: FACS on CHO-K1-human CD19-1C4

Chain of human CD19 on the surface of cells (human) (P15391 20-556): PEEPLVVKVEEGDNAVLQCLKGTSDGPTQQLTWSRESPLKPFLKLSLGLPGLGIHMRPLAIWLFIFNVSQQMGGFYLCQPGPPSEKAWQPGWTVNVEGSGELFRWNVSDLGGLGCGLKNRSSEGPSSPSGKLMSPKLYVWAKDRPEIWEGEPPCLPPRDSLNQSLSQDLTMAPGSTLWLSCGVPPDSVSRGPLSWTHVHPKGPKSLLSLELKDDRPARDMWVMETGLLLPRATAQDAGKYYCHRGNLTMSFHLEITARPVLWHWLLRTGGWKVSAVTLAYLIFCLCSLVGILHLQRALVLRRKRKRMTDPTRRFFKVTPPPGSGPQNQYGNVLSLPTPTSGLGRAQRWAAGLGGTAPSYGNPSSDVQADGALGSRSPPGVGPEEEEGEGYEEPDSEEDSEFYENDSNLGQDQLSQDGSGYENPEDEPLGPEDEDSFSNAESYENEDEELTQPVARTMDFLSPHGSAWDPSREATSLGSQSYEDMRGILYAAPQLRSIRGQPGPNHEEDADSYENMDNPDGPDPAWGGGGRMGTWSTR
Chain of Human CD19-his protein (human) (P15391 20-291 limits assumed): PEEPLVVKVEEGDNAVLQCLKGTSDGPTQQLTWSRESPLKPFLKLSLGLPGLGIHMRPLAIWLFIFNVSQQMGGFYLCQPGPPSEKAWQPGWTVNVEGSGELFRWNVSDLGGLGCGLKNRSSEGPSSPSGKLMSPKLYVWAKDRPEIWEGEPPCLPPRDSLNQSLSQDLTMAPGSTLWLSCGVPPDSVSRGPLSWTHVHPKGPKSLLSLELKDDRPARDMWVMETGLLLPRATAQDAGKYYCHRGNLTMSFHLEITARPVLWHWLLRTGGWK
Chain of human CD19 on CHO-K1-human CD19 cells (human) (P15391 20-556): as the sequence (P15391 20-556) above
Chain of human CD19 on Raji cells (human) (P15391 20-556): as above

Maximum mean fluorescence intensity [1]: 82 MFI
Maximum mean fluorescence intensity [2]: 651 MFI
OD450 at 0.0001 nM [3]: 0.09 OD450
OD450 at 0.001 nM [3]: 0.08 OD450
OD450 at 0.01 nM [3]: 0.08 OD450
OD450 at 0.10 nM [3]: 0.08 OD450
OD450 at 1.00 nM [3]: 0.08 OD450
OD450 at 100 nM [3]: 0.17 OD450
Substance: anti-hel-mIgG1 (antibody)

OD450 [4]: 0.05
Maximum mean fluorescence intensity [1]: 99
OD450 [5]: 0.05
Maximum mean fluorescence intensity [2]: 435
Proportion of chimeric antibody positive cells to B cells (%) at 1 nM [6]: 1%
Proportion of chimeric antibody positive cells to B cells (%) at 10 nM [6]: 1%
Proportion of chimeric antibody positive cells to B cells (%) at 100 nM [6]: 1%
OD450 [7]: 0.08
OD450 [8]: 0.05
OD450 [9]: 0.05
Maximum mean fluorescence intensity [10]: 90
OD450 [11]: 0.04
OD450 [12]: 0.05
Substance: anti-hel-hIgG1 (antibody)

mean fluorescence intensity [13]: 62
mean fluorescence intensity [14]: 50
mean fluorescence intensity [15]: 72
mean fluorescence intensity [16]: 50
mean fluorescence intensity [17]: 50
mean fluorescence intensity [18]: 50
Substance: IgG subtype control (antibody)
